Measurements published in PMC3215731.

Target: TNC-scTNFR2 (trimerization domain of human tenascin C fused to the N-terminus of the TNFR2-selective single-chain TNF) (human) (UniProt P24821)
Assay: SEC; HPLC-SEC, BioSep-SEC-S2000 7.8x300 column, PBS, 0.5 ml/min, 50 µl sample at 0.1 to 0.5 mg/ml, against standard proteins; oligomerization state under native conditions

- stoichiometry N: 3
Substance: TNC-scTNFR2 (trimerization domain of human tenascin C fused to the N-terminus of the TNFR2-selective single-chain TNF) (from UniProt P24821 110-139) (ligand)
